The values below come from patent publication US6942981.

Ends that are not written are not given here. * marks the point of attachment. Biotin = O=C1N[C@H]2[C@H](CS[C@H]2CCCCC(=O)*)N1

Test [1] concerns the target T1, GST-NeDLG PDZ domains 1-2 fusion protein (Mus musculus (Mouse), UniProt P70175 147-332).
T1 construct: also called NeDLG1; not shown: glutathione S-transferase (GST) encoded by pGEX-3X
T1 chain: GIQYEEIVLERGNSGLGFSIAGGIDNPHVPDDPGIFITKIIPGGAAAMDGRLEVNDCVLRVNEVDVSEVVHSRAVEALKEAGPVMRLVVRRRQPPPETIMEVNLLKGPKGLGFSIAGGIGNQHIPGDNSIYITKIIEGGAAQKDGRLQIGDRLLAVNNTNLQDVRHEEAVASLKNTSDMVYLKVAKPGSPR
Kind of test: G assay.

Test [2] has as its target T2, GST-DVL1 PDZ domain fusion protein (human).
T2 construct: also called human dishevelled segment polarity protein homolog; not shown: glutathione S-transferase (GST) encoded by pGEX-3X
T2 chain: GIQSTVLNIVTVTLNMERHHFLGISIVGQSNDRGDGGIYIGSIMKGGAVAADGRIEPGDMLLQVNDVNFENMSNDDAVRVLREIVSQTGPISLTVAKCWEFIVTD
As to the kind of experiment: A/G assays.

Test [3] deals with T3, GST-CASK PDZ domain fusion protein (mouse, UniProt O14936 485-575 (human entry)).
T3 sequence: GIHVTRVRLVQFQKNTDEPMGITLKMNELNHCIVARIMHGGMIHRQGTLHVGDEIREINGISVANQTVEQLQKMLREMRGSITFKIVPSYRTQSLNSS
As to the kind of experiment: A/G assays.

The target of test [4] is T4, GST-KIAA0559 PDZ domain fusion protein (Homo sapiens (Human), UniProt Q9Y6V0 4489-4594).
T4 construct: also called K559; not shown: glutathione S-transferase (GST) encoded by pGEX-3X
T4 sequence: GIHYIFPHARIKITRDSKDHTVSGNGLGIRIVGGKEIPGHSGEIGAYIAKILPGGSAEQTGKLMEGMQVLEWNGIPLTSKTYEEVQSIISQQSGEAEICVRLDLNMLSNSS
As to the kind of experiment: A/G assays.

Test [5] has as its target T5, GST-CBP (Cytohesin binding protein HE) PDZ domain fusion protein (Homo sapiens (Human), UniProt O60759 74-165).
T5 construct: not shown: glutathione S-transferase (GST) encoded by pGEX-3X
T5 sequence: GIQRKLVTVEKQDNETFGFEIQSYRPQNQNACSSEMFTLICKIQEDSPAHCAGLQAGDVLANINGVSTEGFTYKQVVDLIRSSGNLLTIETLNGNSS
Kind of test: A/G assays.

Test [6] concerns the target T6, GST-RGS12 PDZ domain fusion protein (human, UniProt O14924 17-85).
T6 construct: also called human regulator of G-protein signalling 12; not shown: glutathione S-transferase (GST) encoded by pGEX-3X
T6 sequence: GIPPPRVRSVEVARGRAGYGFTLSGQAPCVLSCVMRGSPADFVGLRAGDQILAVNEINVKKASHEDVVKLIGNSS
As to the kind of experiment: A/G assays.

The target in test [7] is T7, GST-SYN1a (alpha1-syntrophin) PDZ domain fusion protein (Homo sapiens (Human), UniProt Q13424 84-179).
T7 construct: also called SYN 1 α; not shown: glutathione S-transferase (GST) encoded by pGEX-3X
T7 sequence: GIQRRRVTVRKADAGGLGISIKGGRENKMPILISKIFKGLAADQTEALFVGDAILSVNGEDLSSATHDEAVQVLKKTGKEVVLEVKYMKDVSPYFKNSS
As to the kind of experiment: A/G assays.

Test [8] concerns the target T8, GST-NOS1 PDZ domain fusion protein (human, UniProt P29475 11-101).
T8 construct: also called human neuronal nitric oxide synthase; not shown: glutathione S-transferase (GST) encoded by pGEX-3X
As to the kind of experiment: A/G assays.

For test [9], the target named is T9, GST-PSD95 PDZ domains 1-3 fusion protein (human, UniProt P31016 58-395 (rat entry)).
T9 construct: not shown: glutathione S-transferase (GST) encoded by pGEX-3X
As to the kind of experiment: A assay.

The target in test [10] is T1, GST-NeDLG PDZ domains 1-2 fusion protein. As to the kind of experiment: A/G assays.

T8 sequence (P29475 other isoform, or with tags, fused parts or gaps): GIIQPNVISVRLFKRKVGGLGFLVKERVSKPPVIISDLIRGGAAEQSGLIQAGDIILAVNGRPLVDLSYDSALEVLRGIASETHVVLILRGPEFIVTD
T9 sequence (P31016 other isoform, or with tags, fused parts or gaps): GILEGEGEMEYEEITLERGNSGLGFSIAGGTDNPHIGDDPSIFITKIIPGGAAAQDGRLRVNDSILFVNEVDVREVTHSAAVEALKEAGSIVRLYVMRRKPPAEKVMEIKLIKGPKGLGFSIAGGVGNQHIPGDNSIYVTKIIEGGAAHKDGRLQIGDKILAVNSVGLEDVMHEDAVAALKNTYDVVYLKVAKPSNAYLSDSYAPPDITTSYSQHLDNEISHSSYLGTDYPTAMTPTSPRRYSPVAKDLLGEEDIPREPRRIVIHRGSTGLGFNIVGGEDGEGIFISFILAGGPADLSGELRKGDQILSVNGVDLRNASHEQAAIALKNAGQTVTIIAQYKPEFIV

On to Biotin-QATSRNGHSARQHVVADTEL [CD34 C-terminal peptide AA7L], for which the binding result in [1] is “binds”; in [2], “no binding”; in test [3], “no binding”; in test [4], “no binding”; in test [5], “no binding”; in test [6], “no binding”. Moreover, the values for the binding result in test [7], in [8] and in test [9] were “no binding”, “no binding” and “binds”, respectively.
Turning to Biotin-TIYENLAPVTTFGKTIA [CD148 peptide AA55L (ending KTIA)], the binding result in [2], in test [3], in test [4], in [5], in [6] and in test [10] was “no binding” throughout. The binding result in test [7] and in [8] was “no binding” in each case.
